The target of the test is Wild-type ACE2(740)-Fc (human). Briefly: BLI, ACE2-Fc on tips, RBD in solution.
Chain of Wild-type ACE2(740)-Fc (human) (chain, as listed by the source): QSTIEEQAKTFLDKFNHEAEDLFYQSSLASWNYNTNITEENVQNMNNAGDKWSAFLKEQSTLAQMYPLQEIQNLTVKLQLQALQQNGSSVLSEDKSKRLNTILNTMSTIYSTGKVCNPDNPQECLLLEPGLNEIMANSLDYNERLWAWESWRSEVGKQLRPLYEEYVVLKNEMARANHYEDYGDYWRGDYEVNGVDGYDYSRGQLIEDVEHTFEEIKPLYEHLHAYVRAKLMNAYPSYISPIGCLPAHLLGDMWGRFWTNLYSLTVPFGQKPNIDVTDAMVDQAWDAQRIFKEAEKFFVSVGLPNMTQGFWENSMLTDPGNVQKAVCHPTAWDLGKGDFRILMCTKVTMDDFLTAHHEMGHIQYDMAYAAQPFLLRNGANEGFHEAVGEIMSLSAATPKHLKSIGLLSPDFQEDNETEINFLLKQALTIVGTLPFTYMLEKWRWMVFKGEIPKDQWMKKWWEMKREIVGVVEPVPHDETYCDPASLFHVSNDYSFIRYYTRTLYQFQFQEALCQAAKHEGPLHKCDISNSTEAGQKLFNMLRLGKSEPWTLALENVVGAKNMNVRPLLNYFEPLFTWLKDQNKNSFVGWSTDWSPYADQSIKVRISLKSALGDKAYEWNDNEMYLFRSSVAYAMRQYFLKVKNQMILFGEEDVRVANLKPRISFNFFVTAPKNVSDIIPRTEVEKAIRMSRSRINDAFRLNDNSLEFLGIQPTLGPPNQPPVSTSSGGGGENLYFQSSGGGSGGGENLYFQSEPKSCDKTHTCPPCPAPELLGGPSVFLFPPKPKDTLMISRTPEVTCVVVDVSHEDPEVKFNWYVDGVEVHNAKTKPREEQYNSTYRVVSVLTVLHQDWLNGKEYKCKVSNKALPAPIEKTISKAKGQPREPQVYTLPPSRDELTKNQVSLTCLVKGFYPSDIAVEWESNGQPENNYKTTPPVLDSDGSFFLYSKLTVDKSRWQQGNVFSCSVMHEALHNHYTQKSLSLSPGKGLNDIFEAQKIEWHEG

B1: Human coronavirus NL63 (HCoV-NL63) spike RBD (ligand)
chain: QHTDINFTATASFGGSCYVCKPHQVNISLNGNTSVCVRTSHFSIRYIYNRVKSGSPGDSSWHIYLKSGTCPFSFSKLNNFQKFKTICFSTVEVPGSCNFPLEATWHYTSYTIVGALYVTWSEGNSITGVPYPVSGI
A word on the Kd: it is the free concentration of one partner at which half of the binding sites on the other are occupied at equilibrium, for simple one-to-one binding. Read a low Kd as tighter binding. B1 registered a Kd of 22 nM.

(Values after patent publication US20230257726A1 (published 2023).)
